According to patent US20250255905A1 (University of Texas, published 2025):

Biological target: T1, recombinantly produced human BCMA (human, UniProt Q02223 1-54, limits assumed)
T1 construct: also called B-cell maturation antigen; TNFRSF17
T1 sequence (looked up): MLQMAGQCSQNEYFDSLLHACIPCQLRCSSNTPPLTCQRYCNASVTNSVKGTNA
Experiment: flow cytometry; CAR-transduced cord blood NK cells stained with recombinantly produced human BCMA to detect the CAR on the surface
Procedure: Following the incubation, the cells were transferred to a v-bottom 96-well plate for cell staining. The cells, after pelleted by centrifugation and washed with flow buffer, were stained in 1:10 Fc block with fluorescently conjugated mouse anti-human CD3, mouse anti-human CD56, mouse anti-human NKG2D, and recombinantly produced human BCMA for 30 minutes on ice in the dark. The stained cells were washed, resuspended in Sytox Viability Dye and recorded on an MACSquant flow cytometer. Data were exported and analyzed using FlowJo v10.6.2. Live CD3-CD56⁺BCMA⁺ […] excluding the viability dye were quantified.

binding result: binds
B1: BCMA-DAP10 CAR (other)
chain: QITLRESGGDVVQPGRSLRLSCAASGFTFSSYAIHWVRQAPGKGLEWVAVTWHDGSNKYYAESVMGRFTISRDNSKNTLYLHMNSLRAEDTGVYYCARAKFGEPQYFQHWGQGTLVTVSSGGGGSGGGGSGGGGSDIVMTQSPSFLSASVGDRVTITCRASQGINNYLAWYQQKPGIAPKLLIYAASTLQSGVPSRFGGSGSGTEFTLTISSLQPEDFATYYCQQLKSYPFTFGPGTKVEIKRAAAIEVMYPPPYLDNEKSNGTIIHVKGKHLCPSPLFPGPSKPKDPKFWVLVVVGGVLACYSLLVTVAFIIFWVLCARPRRSPAQEDGKVYINMPGRGRVKFSRSADAPAYQQGQNQLYNELNLGRREEYDVLDKRRGRDPEMGGKPRRKNPQEGLYNELQKDKMAEAYSEIGMKGERRRGKGHDGLYQGLSTATKDTYDALHMQALPPR
notes: It leaves out the signal peptide, E2A and IL-15; E2A residues left at the C-terminus after cleavage are not described; also called BCMA CAR; BCMA targeting CAR
